Results reported in IntAct's records for PubMed 16431923.

Biological target: ccnd1_human CCND1 (UniProt P24385)
Sequence (P24385 whole entry): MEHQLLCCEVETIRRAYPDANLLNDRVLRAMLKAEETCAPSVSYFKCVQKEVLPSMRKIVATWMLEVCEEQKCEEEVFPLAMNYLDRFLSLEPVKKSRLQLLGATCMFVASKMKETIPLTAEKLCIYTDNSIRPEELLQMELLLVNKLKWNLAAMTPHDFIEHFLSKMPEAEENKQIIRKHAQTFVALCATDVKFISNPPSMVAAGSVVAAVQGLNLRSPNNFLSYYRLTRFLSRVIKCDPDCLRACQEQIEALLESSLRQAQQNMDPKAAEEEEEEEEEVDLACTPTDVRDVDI

Nucleoprotein (Human SARS coronavirus), P59595 S207A;P208A;A209L;R210G
effect of a mutation on the interaction: decreasing interaction strength
